Results reported in patent US20230365711A1 (Hoffmann-La Roche, published 2023).
Numbering of substitutions follows the chain as printed. Numbers in names are those of the source. Each block holds one binder with its values, some of them ahead of it.

Experiments:
[1] = biological target: T1, huNABA-avi-his (hybrid protein N-A1-B3-A2: N and A1 domains of human BGP, B3 domain of human CEA, A2 domain … (human, biotinylated at the avi tag (in vivo, co-transfected biotin ligase))); assay: Biacore on immobilized NABA-avi-his; Bivalent Affinity
T1 construct: also called NABA-avi-his reagent; biotinylated NABA
T1 chain: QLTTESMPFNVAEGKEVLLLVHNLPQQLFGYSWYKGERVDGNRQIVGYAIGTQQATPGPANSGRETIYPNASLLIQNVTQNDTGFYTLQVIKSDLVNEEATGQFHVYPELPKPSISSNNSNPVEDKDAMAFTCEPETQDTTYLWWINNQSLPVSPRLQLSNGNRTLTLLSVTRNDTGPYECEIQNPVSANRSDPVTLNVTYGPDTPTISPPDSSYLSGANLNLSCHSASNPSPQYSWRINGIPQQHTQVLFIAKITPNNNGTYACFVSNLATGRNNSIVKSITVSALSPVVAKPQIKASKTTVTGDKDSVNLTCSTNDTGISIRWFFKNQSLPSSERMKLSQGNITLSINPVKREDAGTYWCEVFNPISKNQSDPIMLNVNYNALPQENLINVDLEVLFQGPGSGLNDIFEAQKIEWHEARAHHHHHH

[2] = biological target: T1, huNABA-avi-his (hybrid protein …); assay: Biacore, column Affinity, CDR-H3 rows; antigen not named on the sheet, NABA-avi-his per paragraph 230
[3] = biological target: T1, huNABA-avi-his (hybrid protein …); assay: Biacore, Fab on immobilized NABA-avi-his; column Monovalent Affinity
[4] = biological target: T1, huNABA-avi-his (hybrid protein …); assay: Biacore, column Affinity, CDR-L1 and CDR-L2 rows; antigen not named on the sheet, NABA-avi-his per paragraph 230
[5] = biological target: T1, huNABA-avi-his (hybrid protein …); assay: Proteon SPR, antibody analyte on biotinylated NABA (Neutravidin chip); column Ka (M)
Excerpt: (§1) Shown in FIG. 22 are Proteon (Biacore) sensorgrams obtained for the binding of the CDR-H3 antibody variants to the CEA antigen-harbouring chimeric protein NABA. […] The affinity matured precursor clone 5HFF12 and the parental antibody CH7A were included for direct comparison. All antibodies tested in this assay had 2F1 as the light chain. […] The relative affinity of each, measured in the bivalent form, is as follows: 5HFF12>CH7A (Y98A/D99Y)>CH7A (Y98A)>CH7A>CH7A (E102Q)>CH7A (D99Y)>CH7A (D99H)>CH7A (A103T)>CH7A (V101F)>CH7A (W95Y).

[6] = biological target: T1, huNABA-avi-his (hybrid protein …); assay: Proteon SPR, antibody analyte on biotinylated NABA (Neutravidin chip)
Excerpt: as §1

[7] = biological target: T1, huNABA-avi-his (hybrid protein …); assay: Proteon SPR, antibody analyte on biotinylated NABA (Neutravidin chip); column Ka (M)
[8] = biological target: T1, huNABA-avi-his (hybrid protein …); assay: Proteon SPR, antibody analyte on biotinylated NABA (Neutravidin chip)

B1: H4E9 x 2F1 (bivalent) (antibody, V domains shown)
VH: QVQLVQSGSELKKPGASVKVSCKASGYTFTEFGMNWVRQAPGQGLEWMGWINTKTGEATYIEEFKGRFVFSLDTSVSTAYLQISSLKAEDTAVYYCARWDFYDYVEAMDYWGQGTTVTVSS
VL: DIQMTQSPSSLSASVGDRVTITCKASAAVGTYVAWYQQKPGKAPKLLIYSASYRKRGVPSRFSGSGSGTDFTLTISSLQPEDFATYYCHQYYTYPLFTFGQGTKLEIKR
notes: bivalent form of the clone
Kd [1]: 0.452 nM | koff [1]: 0.000191 s⁻¹ | kon [1]: 423000 M⁻¹ s⁻¹

B2: 2D7 (Fab, V domains shown)
VH: B1 VH with I61V, D103W
VL: DIQMTQSPSSLSASVGDRVTITCKASQNVGTNVAWYQQKPGKAPKLLIYSASYRYSGVPSRFSGSGSGTDFTLTISSLQPEDFATYYCHQYYTYPLFTFGQGTKLEIK
Kd [2]: 746 nM

B3: H3 Full (5) 8 (Fab, V domains shown)
VH: B1 VH with I61V, Y102F, D103E, V105F, E106K, A107T
VL: B2 VL
Kd [3]: 51 nM | koff [3]: 0.0014 s⁻¹ | kon [3]: 27300 M⁻¹ s⁻¹ | Kd [2]: 51 nM

B4: 3E1 (Fab, V domains shown)
VH: B1 VH with I61V, Y102V
VL: B2 VL
Kd [2]: 1890 nM

B5: H3 Full (5) 28 (Fab, V domains shown)
VH: B1 VH with I61V, Y102F, D103Y, E106Q, A107T
VL: B2 VL
Kd [2]: 81 nM

B7: 1C8 x 2F1 (bivalent) (antibody, V domains shown)
VH: B1 VH with I61V, D103H
VL: B2 VL with Q27A, N28A, N32Y, Y55K, S56R
notes: bivalent form of the clone; copies: 2 + 2
Kd [1]: 0.66 nM | koff [1]: 0.000636 s⁻¹ | kon [1]: 968000 M⁻¹ s⁻¹

B9: H3 Full (5) 19 x 2F1 (bivalent) (antibody, V domains shown)
VH: B1 VH with N35S, I61V, F101A, Y102F, D103E, E106K, M108L
VL: B2 VL with Q27A, N28A, N32Y, Y55K, S56R
notes: as for B7
Kd [1]: 0.16 nM | koff [1]: 0.000284 s⁻¹ | kon [1]: 1.76e+06 M⁻¹ s⁻¹

B12: L2D2 (Fab, V domains shown)
VH: B1 VH with I61V
VL: B2 VL with Q27H, Y53H
Kd [4]: 2260 nM

B13: 1C8 x 2F1 (Fab, V domains shown)
VH: B1 VH with I61V, D103H
VL: B2 VL with Q27A, N28A, N32Y, Y55K, S56R
notes: also called 1C8 x 2F1 hc/lc, monovalent; copies: 1 + 1
Kd [3]: 128 nM | koff [3]: 0.0087 s⁻¹ | kon [3]: 68100 M⁻¹ s⁻¹

B14: H4E9 x 3A1 (antibody, V domains shown)
VH: B1 VH
VL: B1 VL with A28N, T31N, Y32N, S50L, Y53N, K55S, R56G
notes: bivalent form
Kd [1]: 0.55 nM | koff [1]: 0.000136 s⁻¹ | kon [1]: 246000 M⁻¹ s⁻¹

B18: H3 Full (5) 27 (Fab, V domains shown)
VH: B1 VH with I61V, Y102S, D103Y
VL: B2 VL
Kd [2]: 132 nM

B20: H3 Full (5) 8 x 2F1 (antibody, V domains shown)
VH: B1 VH with I61V, Y102F, D103E, V105F, E106K, A107T
VL: B2 VL with Q27A, N28A, N32Y, Y55K, S56R
notes: bivalent form; copies: 2 + 2
Kd [1]: 0.28 nM | koff [1]: 0.000271 s⁻¹ | kon [1]: 993000 M⁻¹ s⁻¹

B21: 1C8 x 3A1 (antibody, V domains shown)
VH: B1 VH with I61V, D103H
VL: B2 VL with Q27A, T31N, S50L, Y53N, Y55S, S56G
notes: bivalent form
Kd [1]: 0.888 nM | koff [1]: 0.000257 s⁻¹ | kon [1]: 289000 M⁻¹ s⁻¹

B22: 3A1 (bivalent) (antibody, V domains shown)
VH: B1 VH with I61V
VL: B2 VL with Q27A, T31N, S50L, Y53N, Y55S, S56G
notes: bivalent form of the clone
Kd [1]: 1.5 nM | koff [1]: 0.000364 s⁻¹ | kon [1]: 242000 M⁻¹ s⁻¹

B23: 3A1 (Fab, V domains shown)
VH: B1 VH with I61V
VL: B2 VL with Q27A, T31N, S50L, Y53N, Y55S, S56G
notes: also called pAC21 (3A1); 3A1 wt/lc
Kd [4]: 250 nM | Kd [3]: 250 nM | koff [3]: 0.0117 s⁻¹ | kon [3]: 46800 M⁻¹ s⁻¹

The next lines start with the values.

Kd [4]: 290 nM
B6: pAC23 (2F11) (Fab, V domains shown)
VH: B1 VH with I61V
VL: B2 VL with N28I, V29A, G30S, S50W

Kd [4]: 700 nM
B8: pAC19 (2C6) (Fab, V domains shown)
VH: B1 VH with I61V
VL: B2 VL with Q27K, L46P, S50L, R54P, Y55Q, S56I

kon [5]: 132000 M⁻¹ s⁻¹ | Kd [6]: 0.52 nM
B10: antibody with heavy chain CH7A (Y98A) and light chain 2F1 (antibody, V domains shown)
VH: B1 VH with I61V, Y102A
VL: B1 VL
notes: Bivalent form

kon [5]: 114000 M⁻¹ s⁻¹ | Kd [6]: 1.73 nM
B11: antibody with heavy chain CH7A (D99Y) and light chain 2F1 (antibody, V domains shown)
VH: B1 VH with I61V, D103Y
VL: B1 VL
notes: Bivalent form

kon [5]: 25100 M⁻¹ s⁻¹ | Kd [6]: 2.87 nM
B15: antibody with heavy chain CH7A (A103T) and light chain 2F1 (antibody, V domains shown)
VH: B1 VH with I61V, A107T
VL: B1 VL
notes: Bivalent form

kon [5]: 198000 M⁻¹ s⁻¹ | Kd [6]: 1.63 nM
B16: antibody with heavy chain CH7A (E102Q) and light chain 2F1 (antibody, V domains shown)
VH: B1 VH with I61V, E106Q
VL: B1 VL
notes: Bivalent form

kon [5]: 59400 M⁻¹ s⁻¹ | Kd [6]: 3.18 nM
B17: antibody with heavy chain CH7A (V101F) and light chain 2F1 (antibody, V domains shown)
VH: B1 VH with I61V, V105F
VL: B1 VL
notes: Bivalent form

kon [7]: 73000 M⁻¹ s⁻¹ | Kd [8]: 6.1 nM
B19: anti-CEA antibody with heavy chain CH1A1G and light chain 2F1 (antibody, V domains shown)
VH: QVQLVQSGAEVKKPGASVKVSCKASGYTFTEFGMNWVRQAPGQGLEWMGWINTKTGEATYVEEFKGRVTMTTDTSTSTAYMEIRSLRSDDTAVYYCARWDFYDYVEAMDYWGQGTTVTVSS
VL: B1 VL

kon [7]: 21100 M⁻¹ s⁻¹ | Kd [8]: 20 nM
B24: anti-CEA antibody with heavy chain CH1A1E and light chain 2F1 (antibody, V domains shown)
VH: B19 VH with V68F, I83L
VL: B1 VL

kon [5]: 86500 M⁻¹ s⁻¹ | Kd [6]: 2.25 nM
B25: antibody with heavy chain CH7A (D99H) and light chain 2F1 (antibody, V domains shown)
VH: B1 VH with I61V, D103H
VL: B1 VL
notes: Bivalent form
